This is an account of results in patent US20260176352A1 (BIRD ROCK BIO, published 2026).

Residue numbers refer to the chain shown, from its start. In names and notes the source's numbering stands.

The target in assay [1] is T1, A139 iCAPS (CB1 with ICL3 native sequence replaced with BRIL) (human, UniProt P21554 99-414).
T1 construct: The insert stands inside the chain in place of ICL3
Description: ELISA, purified IgG on A139 CB1 iCAPS. On the procedure: (§1) Purified IgG was tested for binding to purified CB1 receptor (CB1 Conformation Antigen Presenting System (iCAPS)) by ELISA. Non-biotinylated antigens (e.g. empty iCAPS) were coated directly on Maxisorp plates. The primary antibodies were purified IgGs with 1:3 serial dilutions, incubated on the plate for 1 hour. After 3 rounds of washing with PBST, secondary antibodies HRP goat anti-mouse IgG (Abmart) or HRP goat anti-human IgG (Sigma), depending on the species of the IgGs were added and incubated for another hour. The plates were washed three times with PBST, then developed with TMB (Biopanda). HCl was added to the plates to stop the reaction. Absorbance at 450 nm was read on Emax precision microplate reader (Molecular Devices).

Assay [2] deals with T2, A138 iCAPS (CB1 with ICL3 native sequence replaced with protein 1 sequence) (human, UniProt P21554 99-414).
T2 construct: The insert stands inside the chain in place of ICL3
T2 sequence (P21554 whole entry): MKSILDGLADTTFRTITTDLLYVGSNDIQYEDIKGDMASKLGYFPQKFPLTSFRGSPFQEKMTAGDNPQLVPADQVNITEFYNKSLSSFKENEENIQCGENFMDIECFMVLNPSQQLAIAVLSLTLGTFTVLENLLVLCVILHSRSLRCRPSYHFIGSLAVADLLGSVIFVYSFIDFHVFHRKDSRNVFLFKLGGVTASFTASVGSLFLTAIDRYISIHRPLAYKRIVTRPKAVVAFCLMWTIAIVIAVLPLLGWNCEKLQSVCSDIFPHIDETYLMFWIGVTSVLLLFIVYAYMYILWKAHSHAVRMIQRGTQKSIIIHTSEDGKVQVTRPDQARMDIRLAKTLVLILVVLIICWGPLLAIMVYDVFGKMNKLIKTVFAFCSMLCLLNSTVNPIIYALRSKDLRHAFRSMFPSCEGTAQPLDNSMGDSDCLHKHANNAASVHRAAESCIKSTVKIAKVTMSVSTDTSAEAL
The experiment in a line: ELISA, purified IgG on A138 CB1 iCAPS. On the procedure: as §1

Assay [3] deals with T3, mouse CB1 (mouse, UniProt P47746 1-473).
T3 construct: whole, on cells; also called TRexCHO Mouse CB1
T3 sequence (P47746 whole entry): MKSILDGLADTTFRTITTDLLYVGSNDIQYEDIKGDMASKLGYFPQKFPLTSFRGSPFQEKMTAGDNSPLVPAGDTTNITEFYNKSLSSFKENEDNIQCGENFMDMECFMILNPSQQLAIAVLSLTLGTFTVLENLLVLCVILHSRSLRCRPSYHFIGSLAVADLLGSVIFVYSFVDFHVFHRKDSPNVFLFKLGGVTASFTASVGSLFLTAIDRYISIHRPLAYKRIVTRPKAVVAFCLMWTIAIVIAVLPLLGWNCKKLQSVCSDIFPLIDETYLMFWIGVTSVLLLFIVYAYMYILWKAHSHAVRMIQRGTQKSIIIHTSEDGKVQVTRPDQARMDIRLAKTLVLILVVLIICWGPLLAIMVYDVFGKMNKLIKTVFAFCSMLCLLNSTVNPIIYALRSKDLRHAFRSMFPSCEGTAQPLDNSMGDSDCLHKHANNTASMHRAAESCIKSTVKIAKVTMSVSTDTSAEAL
Description: flow cytometry on TRex-CHO mouse CB1 cells, lower panel. As to the method: (§2) After being washed with 200 μl of FACS buffer twice, cells were incubated with PE conjugated anti-human secondary antibody (Southern Biotech) for 30 minutes on ice. Cells were washed with 200 μl of FACS buffer twice and transferred to BD Falcon 5 ml tube and analyzed by flow cytometry (BD FACScalibur).

In assay [4] the target is T4, human CB2 (human, UniProt P34972 1-360).
T4 construct: whole, on cells; also called TRexCHO Human CB2
T4 sequence (P34972 whole entry): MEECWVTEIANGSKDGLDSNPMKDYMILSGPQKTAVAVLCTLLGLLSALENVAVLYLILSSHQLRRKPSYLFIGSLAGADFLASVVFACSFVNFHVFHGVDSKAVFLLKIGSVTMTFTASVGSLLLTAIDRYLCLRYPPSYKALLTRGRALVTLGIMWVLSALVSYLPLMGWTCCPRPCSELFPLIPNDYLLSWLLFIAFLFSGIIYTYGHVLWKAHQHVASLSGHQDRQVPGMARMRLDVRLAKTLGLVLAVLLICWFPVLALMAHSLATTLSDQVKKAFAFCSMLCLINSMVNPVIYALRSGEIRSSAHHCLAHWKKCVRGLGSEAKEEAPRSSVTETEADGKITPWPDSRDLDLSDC
The experiment in a line: flow cytometry on TRex-CHO human CB2 cells, middle panel. On the procedure: as §2

In assay [5] the target is T5, native full length human CB1 receptor (cannabinoid 1 receptor) (human, UniProt P21554 1-472). The experiment in a line: cell-based or functional assay.
T5 sequence (P21554 whole entry): as the sequence (P21554 whole entry) above
The target in assay [6] is T5, native full length human CB1 receptor …. The experiment in a line: flow cytometry, TRex-CHO full length native human CB1 cells; mean. As to the method: (§3) After being washed with 200 μL of FACS buffer twice, cells were incubated with secondary antibody for 30 minutes on ice. Cells were washed with 200 μL of FACS buffer twice and transferred to BD Falcon 5 mL tube and analyzed by FACS. Data analysis and measurement of binding affinity (KD) was performed using GraphPad Prism software.

The target is the same in assay [7]. The experiment in a line: flow cytometry, TRex-CHO full length native human CB1 cells; Exp 1. As to the method:
as §3

Assay [8] has the same target. Description: flow cytometry, TRex-CHO full length native human CB1 cells; Exp 2. As to the method: as §3
For assay [9] the target is unchanged. The experiment in a line: cell-based or functional assay. This is another data set of the same source.
The target is the same in assay [10]. The experiment in a line: flow cytometry, Fab on TRex-CHO human CB1 cells.
Assay [11] has the same target. The experiment in a line: flow cytometry on TRex-CHO cells stably transfected with tetracycline inducible CB1, FITC-conjugated anti-human antibody [panel A].
Assay [12] has the same target. Description: cell-based or functional assay. The source holds these as a separate data set.

T1 sequence (P21554 whole entry): as above

B1: PA2R3-P1F1 (chimeric) (antibody, V domains shown)
VH: EVQLQQSGAELMKPGASVKISCKATGYTFSSYWIEWVKQRPGHGLEWIGEILPGSGSTNYNEKFKGKATFTADTSSNTAYMQLSSLTSEDSAVYYCARGAWLLSYWYFDVWGAGTSVTVSS
VL: DIQMMQSTSSLSASLGDRVTISCSASQGISNYLNWYQQKPDGTVKLLIYYTSSLHSGVPSRFSGSGSGTQFSLKINSLQPEDFGSYYCQHHYGTPYTFGGGTKLELKR
As for B1, the EC50 in assay [1] worked out at 1.1 nM; in [2], 1.3 nM.

B2: P1C4-h2-IgG1 (antibody)
heavy: not shown
light: EIVLTQSPATLSLSPGERATLSCRASQSVSSSYLHWYQQKPGQAPRLLIYSTSNLASGIPARFSGSGSGTDFTLTISRLEPEDFAVYYCHQYHRSPPTFGQGTKVEIKRTVAAPSVFIFPPSDEQLKSGTASVVCLLNNFYPREAKVQWKVDNALQSGNSQESVTEQDSKDSTYSLSSTLTLSKADYEKHKVYACEVTHQGLSSPVTKSFNRGEC
notes: also called P1C4-H2 (YE); P1C4-H2 (YE)-IgG
B2: the binding result in [3] and in assay [4] was “no binding (tested: about 300 nM (last point))” each time.

B3: P1C4-h4-IgG1 (antibody)
heavy: not shown
light: B2 light
notes: also called P1C4-H4 (YENG); P1C4-H4 (YENG)-IgG
For the molecule B3, the binding result in assay [3] and in assay [4] was “no binding (tested: about 300 nM (last point))” in each case.

B4: PA2LR3-P6G7 (chimeric) (antibody, human IgG1, kappa, V domains shown)
VH: EVQLQQSGAELVRPGSSVKISCKASGFAFSNYWMNWVKQRPGQGLEWIGQIYPGDGDTNFNGKFKGRAILTADISSNTAYMQLSSLTSEDSAVYFCARSHGNYFPYWGQGTLVTVSA
VL: DIVLTQSPAIMSASLGERVTMTCTASSSVSSSYLHWYQQKPGSSPKLWIYSTSNLASGVPARFSGSGSGTSYSLTISSMEAEDAATYYCHQHHRSPPTFGAGTKLELKR
In the case of B4, in assay [5], the “EC50, cAMP agonist functional assay” value is greater than 300 nM.

B5: PA2LR3-P4B1 (chimeric) (antibody, human IgG1, kappa, V domains shown)
VH: B4 VH
VL: B4 VL with D1Q, H92Y, P97L
With B5, the EC50 in [1] worked out at 1.41 nM; in assay [2] it was 1.28 nM. The “EC50, cAMP agonist functional assay” value in assay [5] was greater than 300 nM.

B6: PA2LR3-P6B12 (chimeric) (antibody, human IgG1, kappa, V domains shown)
VH: B4 VH with F27Y, N31Y, F60Y, R67K, I69T, I74K, N77S, P105A
VL: B4 VL with D1Q, H92Y, P97L, T98A
Consider B6, for which the “EC50, cAMP assay in the presence of CP55940” value in assay [5] was roughly 1000 nM.

B7: PA2LR3-P2D3 (chimeric) (antibody, human IgG1, kappa, V domains shown)
VH: B4 VH with F27Y, N31Y, F60Y, R67K, I69T, I74K, N77S, N102S, P105A
VL: DIELAQSPASLAVSLGQRATISCRASESVDSYGNSFMHWYQQKPGQPPKLLIYLASNLESGVPARFSGSGSRADFTLTIDPVEADDAATYYCLQYASSPPTFGAGTKLEIKR
B7: the EC50 in assay [1] amounted to 2.6 nM; in assay [2], 4.9 nM. The “EC50, cAMP agonist functional assay” value in [5] is greater than 300 nM.

B8: RY-HL-LC-A12 FACS4 (IgG4 S228P) (antibody, V domains shown)
VH: QVQLVQSGAEVKKPGSSVKVSCKASGYEFSYYWMNWVRQAPGQGLEWMGQIYPGDGETKYAQKFQGRVTITADKSTSTAYMELSSLRSEDTAVYYCARSHGNYLPYWGQGTLVTVSS
VL: EIVLTQSPATLSLSPGERATLSCRASQSVSSRYLHWYQQKPGQAPRLLIYGTSNLASGIPARFSGSGSGTDFTLTISRLEPEDFAVYYCHQYSRSPPTFGQGTKVEIKR
As for B8, the Kd in [6] was found to be 10.3 nM. The same molecule came in with a Kd in assay [7] of 11.5 nM. The molecule also showed a Kd in assay [8] of 9.19 nM. For the same molecule, in [9], the “Exp 1 IC50 (nM), cAMP antagonist assay” value amounted to 48 nM; the “Exp 2 IC50 (nM), cAMP antagonist assay” value came out at 33.9 nM; the “Exp 3 IC50 (nM), cAMP antagonist assay” value came out at 42.4 nM.

B9: P1C4-h2 Fab (Fab, V domains shown)
VH: B8 VH
VL: EIVLTQSPATLSLSPGERATLSCRASQSVSSSYLHWYQQKPGQAPRLLIYSTSNLASGIPARFSGSGSGTDFTLTISRLEPEDFAVYYCHQYHRSPPTFGQGTKVEIK
notes: Fab; constant parts not described; also called humanized P1C4 Fab h2
On to B9, for which the Kd in assay [10] amounted to 14 nM. Moreover, the “EC50 (read off the curve)” value in assay [11] lay in the range of 10 to 20 nM. Besides, the “IC50 cAMP assay” value in [12] came to 52 nM.

B10: RY-HL-LC-C12 FACS4 (IgG4 S228P) (antibody, V domains shown)
VH: B8 VH
VL: B8 VL with G51S, N54R, S93H
For the molecule B10, binding in assay [6] was put at a Kd of 14.1 nM. The molecule further came in with a Kd in assay [7] of 14.4 nM. The molecule also yielded a Kd in assay [8] of 13.9 nM. Also, in [9], the “Exp 1 IC50 (nM), cAMP antagonist assay” value came to 76.8 nM; the “Exp 2 IC50 (nM), cAMP antagonist assay” value amounted to 52.5 nM; the “Exp 3 IC50 (nM), cAMP antagonist assay” value was 43.1 nM.

B11: RY-LC-A10 FACS5 (IgG4 S228P) (antibody, V domains shown)
VH: B8 VH
VL: B8 VL with G51S, L55R, H90Q, S93H
In turn, B11 registered a Kd in [6] of 12.4 nM. The molecule further yielded a Kd in assay [8] of 12.4 nM. In assay [9], the “Exp 1 IC50 (nM), cAMP antagonist assay” value came to 120 nM; the “Exp 2 IC50 (nM), cAMP antagonist assay” value is 62.6 nM; the “Exp 3 IC50 (nM), cAMP antagonist assay” value stood at 48.1 nM.

B12: RY-LC-B12 FACS3 (IgG4 S228P) (antibody, V domains shown)
VH: B8 VH
VL: B8 VL with G51S, N54R, H90Q, S93H
In turn, B12 showed a Kd in assay [6] of 8.82 nM. Besides, the affinity in assay [7], expressed as Kd, was 8.75 nM. In assay [8], this molecule came in with a dissociation constant Kd of 8.89 nM. In assay [9], the “Exp 1 IC50 (nM), cAMP antagonist assay” value is 40.9 nM; the “Exp 2 IC50 (nM), cAMP antagonist assay” value was found to be 32.9 nM; the “Exp 3 IC50 (nM), cAMP antagonist assay” value came out at 39.7 nM.
